Results as given in patent publication US20110086026A1 (ROCHE PALO ALTO, published 2011).

How the values were obtained:
[1] = target: T1, human IL-13Rα1 (human, UniProt P78552 22-427); assay: cell-based or functional assay
T1 sequence (looked up): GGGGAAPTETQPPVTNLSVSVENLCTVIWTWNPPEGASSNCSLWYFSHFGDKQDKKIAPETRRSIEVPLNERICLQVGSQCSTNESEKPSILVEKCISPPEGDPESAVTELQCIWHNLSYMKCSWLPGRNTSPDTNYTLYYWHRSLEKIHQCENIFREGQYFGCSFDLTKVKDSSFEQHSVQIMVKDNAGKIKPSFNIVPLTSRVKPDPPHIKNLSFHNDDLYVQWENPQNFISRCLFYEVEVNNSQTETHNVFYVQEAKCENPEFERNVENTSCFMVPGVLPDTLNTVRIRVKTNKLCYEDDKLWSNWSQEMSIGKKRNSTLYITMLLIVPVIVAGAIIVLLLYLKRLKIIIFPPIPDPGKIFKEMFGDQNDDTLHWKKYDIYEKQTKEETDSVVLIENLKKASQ

[2] = target: Cynomolgus IL-13Rα1 expressed in transfected Ba/F3 cells (Cynomolgus); assay: FACS, transfected against parental Ba/F3 cells, 10 µg/ml
[3] = target: Cynomolgus IL-13Rα1 expressed in transfected Ba/F3 cells (Cynomolgus); assay: FACS on Ba/F3 cells transfected with Cynomolgus IL-13Rα1, 10 µg/ml
[4] = target: T1, human IL-13Rα1; assay: displacement of 125I-IL-13 on CHO cells expressing human IL-13Rα1 and IL-4Rα
[5] = target: Chimeric protein murine IL-13Rα1:hFc (R&D Systems, UK) (mouse) (UniProt O09030); assay: ELISA, immobilized murine IL-13Rα1:hFc, detection with anti-goat IgG-POD, OD 405nm
Sequence of Chimeric protein murine IL-13Rα1:hFc (R&D Systems, UK) (mouse) (O09030 26-340, change not shown): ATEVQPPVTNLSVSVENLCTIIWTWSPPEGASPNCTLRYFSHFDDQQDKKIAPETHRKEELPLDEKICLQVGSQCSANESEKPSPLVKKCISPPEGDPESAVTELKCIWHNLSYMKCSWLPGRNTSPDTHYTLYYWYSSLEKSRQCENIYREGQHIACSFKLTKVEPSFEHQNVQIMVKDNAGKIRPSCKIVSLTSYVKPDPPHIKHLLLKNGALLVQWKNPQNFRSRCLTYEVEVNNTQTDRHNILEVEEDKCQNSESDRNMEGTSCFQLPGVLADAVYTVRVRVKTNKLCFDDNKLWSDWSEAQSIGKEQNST

[6] = target: extracellular domain of IL-13Rα1 (R&D Systems, UK) (human) (UniProt P78552); assay: ELISA, immobilized extracellular domain of human IL-13Rα1, detection with anti-goat IgG-POD, OD 405nm-492nm
[7] = target: Cynomolgus IL-13Rα1 expressed in transfected Ba/F3 cells (Cynomolgus); assay: FACS, transfected against parental Ba/F3 cells; negative control
[8] = target: Cynomolgus IL-13Rα1 expressed in transfected Ba/F3 cells (Cynomolgus); assay: FACS on Ba/F3 cells transfected with Cynomolgus IL-13Rα1; negative control
[9] = target: Cynomolgus IL-13Rα1 expressed in transfected Ba/F3 cells (Cynomolgus); assay: FACS, transfected against parental Ba/F3 cells; secondary reagent only
[10] = target: Cynomolgus IL-13Rα1 expressed in transfected Ba/F3 cells (Cynomolgus); assay: FACS on Ba/F3 cells transfected with Cynomolgus IL-13Rα1; secondary reagent only
[11] = target: T2, extracellular domain of hIL-13Rα1 cleaved from hIL-13Rα1:hFc chimeric protein (human, UniProt P78552 22-343); assay: SPR Biacore 3000, C1 chip, HuMab captured by anti-hFcγ, cleaved hIL-13Rα1 as analyte, 1:1 Langmuir model
T2 construct: extracellular domain; also called Cleaved hIL-13Rα1 molecules (MW 40 kDa)
T2 sequence (looked up): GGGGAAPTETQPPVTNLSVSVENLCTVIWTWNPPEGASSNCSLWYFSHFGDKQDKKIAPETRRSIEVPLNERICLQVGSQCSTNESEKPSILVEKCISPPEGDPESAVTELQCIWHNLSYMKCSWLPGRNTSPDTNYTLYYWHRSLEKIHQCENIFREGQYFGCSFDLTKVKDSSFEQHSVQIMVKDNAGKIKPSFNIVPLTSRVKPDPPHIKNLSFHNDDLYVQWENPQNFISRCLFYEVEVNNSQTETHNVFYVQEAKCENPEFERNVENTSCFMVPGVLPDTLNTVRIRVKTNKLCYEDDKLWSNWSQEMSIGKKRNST
Description: For interaction analysis, a Biacore 3000 instrument was used. Running and reaction buffer was HBS-P (10 mM HEPES, 150 mM NaCl, 0.005% polysurfactant P, pH 7.4) at 25° C. Capturing antibody molecules (anti-hFcγ) were amine-coupled at a concentration of 100 μg/ml at a flow rate of 5 μl/min for 20 minutes. HuMabs were injected at concentrations of 10 μg/ml at a flow rate of 10 μl/min for 30 seconds. Cleaved hIL-13Rα1 molecules (MW 40 kDa) were injected for 200 seconds at seven concentrations between 1.56 nM and 100 nM and washed with HBS-P for five minutes. Regeneration of the surface was accomplished by two injections of 100 mM HCl for 1 min each at a flow rate of […]. The chip, assay format and sequence of injections and kinetic data correspond to the description in the following Table 3. Kinetic data were calculated by fitting kinetic data to a 1:1 Langmuir binding model.

[12] = target: T2, extracellular domain of hIL-13Rα1 …; assay: SPR Biacore 3000, CM5 chip, HuMab captured by anti-hFcγ, cleaved hIL-13Rα1 as analyte, bivalent analyte model
Description: (§1) In these experiments, the affinity of the original IgG1 derived from hybridoma was compared with the affinities of the recombinant variant IgG1-Ala-Ala. For interaction analysis, a Biacore 3000 instrument was used. Running and reaction buffer was HBS-P (10 mM HEPES, 150 mM NaCl, 0.005% polysurfactant P, pH 7.4) at 25° C. Capturing antibody molecules (anti-hFcγ) were amine-coupled at a concentration of 20 μg/ml at a flow rate of 5 μl/min for 20 minutes. HuMabs were injected at concentrations of 10 μg/ml at a flow rate of 10 μl/min for 1 minute. Cleaved hIL-13 Rα1 molelcules (analyte) were injected for five minutes at eight concentrations between 1.56 nM and 200 nM and washed with HBS-P for five minutes. Regeneration of the surface was accomplished by two injections of 100 mM HCl for 1 min each. The chip, assay format and sequence of injections and kinetic data correspond to the description in Table 4. Kinetic data were calculated by fitting kinetic data to a bivalent analyte binding model.

[13] = target: T2, extracellular domain of hIL-13Rα1 …; assay: SPR Biacore 3000, CM5 chip, HuMab captured by anti-hFcγ, cleaved hIL-13Rα1 as analyte, bivalent analyte model (ka1)
Description: as §1

[14] = target: T2, extracellular domain of hIL-13Rα1 …; assay: SPR Biacore 3000, CM5 chip, HuMab captured by anti-hFcγ, cleaved hIL-13Rα1 as analyte, bivalent analyte model (kd1)
Description: as §1

polyclonal goat anti-hIL-13Rα1 antibody AF152 (R&D Systems)
IC50, IL-13-induced Stat-6 phosphorylation in BSMC [1]: 18.6 nM | IC50, TF-1 proliferation in response to IL-13 [1]: 13.5 nM | IC50 for IL-4-induced TF-1 proliferation [1]: 74.4 nM | IC50 for inhibiting of CD23 upregulation on B-lymphocytes (IL-13 induced) [1]: 13.6 nM | IC50 for inhibition of IL-13 induced CD23 upregulation on human monocytes [1]: 62.9 nM | average IC50, eotaxin release of HFL-1 cells in response to IL-13 [1]: 11.5 nM | Fold Increase in MFI in the presence of Cyno IL-13Rα1 [2]: 18 | MFI Ba/F3 Cyno IL-13Rα1 [3]: 21.2 MFI | IC50 [4]: 84.8 nM | EC50 (read off the curve) [5]: 0.2 nM | EC50 (read off the curve) [6]: 0.6 nM

Normal human IgG1 (Nordic) (antibody)
Fold Increase in MFI in the presence of Cyno IL-13Rα1 [7]: 6.7 | MFI Ba/F3 Cyno IL-13Rα1 [8]: 10.2 MFI

Normal goat IgG (antibody)
Fold Increase in MFI in the presence of Cyno IL-13Rα1 [7]: 2.4 | MFI Ba/F3 Cyno IL-13Rα1 [8]: 5.7 MFI

Anti human IgG-FITC only (antibody)
Fold Increase in MFI in the presence of Cyno IL-13Rα1 [9]: 2.2 | MFI Ba/F3 Cyno IL-13Rα1 [10]: 5.5 MFI

B1: LC5002-005, mutant L234A; L235A (antibody, V domains shown)
VH: EVQVLDSGGGLVQPGGSLRLSCTASGFTFRLYTMSWVRQTPGRGLEWVSGISGSGLSTYFADSVKGRFTISRDNSKNTVYLQMNSLRAEDTAVYYCAKEGDWIYFDSWGQGTLVIVSS
VL: DIQMTQSPSSLSASVGDRVTITCRASQGISSWLAWYQQKPEKAPKSLIYAASSLQSGVPSRFSGSGSGTDFTLTISSLQPEDFATYYCQQYNSHPPTFGQGTKLEIKR
notes: Recombinant IgG1 variant; also called IgG1 ala-ala LC5002-005; recombinant variant IgG1-Ala-Ala
Kd [11]: 0.21 nM | koff [11]: 0.00029 s⁻¹ | kon [11]: 1.4e+06 M⁻¹ s⁻¹ | Kd [12]: 2.8 nM | kon [13]: 153000 M⁻¹ s⁻¹ | koff [14]: 0.00042 s⁻¹
